Laboratory results: publication PMC8800115

Columns and labels:
[1] = biological target: K63-linked diubiquitin (UniProt P0CG48); experiment: ITC; MicroCal iTC200; proteins dialysed in 20 mM Hepes pH 7.5, 150 mM NaCl, 200 μM TCEP; 2-μl injections; who was in the cell is not given; ranges of Kd are from fits with N fixed to 1 (first value: active concentration in the cell varied, second: in the syringe); Kd of S470R and E467R/S470R called apparent
[2] = biological target: K63-linked tetraubiquitin (UniProt P0CG48); experiment: as above

Q: How did the Kd [1] turn out when “ASCC2 CUE domain (construct of the ITC experiments of Figure 2) (from UniProt Q9H1I8 463-525) (domain or fragment)” was run?
A: 8.7 to 10.4 µM

Q: What about the stoichiometry N (ASCC2 CUE domain per K63Ub2) [1] of the same substance?
A: 1

Q: What about the stoichiometry N (ASCC2 CUE domains per K63Ub4) [2] of the same substance?
A: 2
